± gives the uncertainty stated by the source.
Assay: self-splicing fitness, log relative to wild type (ln ratio); higher = more splicing; Tetrahymena group I intron in knt gene, E. coli kanamycin selection, DiMSum; sequences stand for … in CUCUCU…GGAGGGAAAAGUUAUCAGGCAUGCACCUGGUAGCUAGUCUUUAAACCAAUAGAUUGCAUCGGUUUAAAAGGCAAGACCGUCAAAUUGCGGGAAAGGGGUCAACAGCCGUUCAGUACCAAGUCUCAGGGGAAACUUUGAGAUGGCCUUGCAAAGGGUAUGGUAAUAAGCUGACGGACAUGGUCCUAACCACGCAGCCAAGUCCUAAGUCAACAGAUCUUCUGUUGAUAUGGAUGCAGUUCACAGACUAAAUGUCGGUCGGGGAAGAUGUAUUCUUCUCAUAAGAUAUAGUCGGACCUCUCCUUAAUGGGAGCUAGCGGAUGAAGUGAUGCAACACUGGAGCCGCUGGGAACUAAUUUGUAUGCGAAAGUAUAUUGAUUAGUUUUGGAGUACUCGUGGUCG
Method in brief: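 Fitness was computed with DiMSum as the error-weighted combination of replicate fold changes, kanamycin versus none, each normalised to wild type. The library randomised all eight intron nucleotides of the P1ex region, with the intron placed in the knt kanamycin-resistance gene on pET-22b(+) in E. coli BL21(DE3). Six replicate transformations were grown overnight at 37°C or 30°C on LB agar with or without 25 μg/mL kanamycin, plus 100 μg/mL carbenicillin, 50 μM IPTG and 0.2% rhamnose. Pooled colonies were amplicon-sequenced on an Illumina HiSeq 2500.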

UGUUAGCAAUAUUACGGGCC
self-splicing fitness (ln) (30 °C): -1.76 ± 0.18 | self-splicing fitness (ln) (37 °C): -1.6 ± 0.32

CUUUAGCAAUAUUACGCAGG
self-splicing fitness (ln) (30 °C): -2.83 ± 0.39

UUACAGCAAUAUUACGACUA
self-splicing fitness (ln) (30 °C): 0.0835 ± 0.1 | self-splicing fitness (ln) (37 °C): 0.256 ± 0.12

ACUUAGCAAUAUUACGCCUA
self-splicing fitness (ln) (30 °C): -0.829 ± 0.29 | self-splicing fitness (ln) (37 °C): 0.394 ± 0.2

CUCCAGCAAUAUUACGCCAG
self-splicing fitness (ln) (30 °C): -3.19 ± 0.37 | self-splicing fitness (ln) (37 °C): -2.08 ± 0.46

ACAAAGCAAUAUUACGCGUG
self-splicing fitness (ln) (30 °C): -1.5 ± 0.043 | self-splicing fitness (ln) (37 °C): -0.274 ± 0.057

CAACAGCAAUAUUACGCUAG
self-splicing fitness (ln) (30 °C): -3.53 ± 0.13 | self-splicing fitness (ln) (37 °C): -2.6 ± 0.14

CGACAGCAAUAUUACGCUGC
self-splicing fitness (ln) (30 °C): -3.02 ± 0.25 | self-splicing fitness (ln) (37 °C): -2.24 ± 0.26

CACUAGCAAUAUUACGCAGA
self-splicing fitness (ln) (30 °C): -2.54 ± 0.19 | self-splicing fitness (ln) (37 °C): -2.16 ± 0.19

UUGUAGCAAUAUUACGACCA
self-splicing fitness (ln) (30 °C): -0.463 ± 0.16 | self-splicing fitness (ln) (37 °C): -0.51 ± 0.17

GCCCAGCAAUAUUACGCAAC
self-splicing fitness (ln) (30 °C): -2.19 ± 0.091 | self-splicing fitness (ln) (37 °C): -0.000822 ± 0.095

CAUUAGCAAUAUUACGCGUU
self-splicing fitness (ln) (30 °C): -2.44 ± 0.12 | self-splicing fitness (ln) (37 °C): -1.48 ± 0.17

UGUUAGCAAUAUUACGUGCA
self-splicing fitness (ln) (30 °C): -0.172 ± 0.15 | self-splicing fitness (ln) (37 °C): 0.0583 ± 0.19

AUUCAGCAAUAUUACGUGGC
self-splicing fitness (ln) (30 °C): -3.76 ± 0.14 | self-splicing fitness (ln) (37 °C): -2.21 ± 0.16

ACGCAGCAAUAUUACGCCAC
self-splicing fitness (ln) (37 °C): -3.22 ± 0.37

UACUAGCAAUAUUACGAUGG
self-splicing fitness (ln) (30 °C): -0.657 ± 0.12 | self-splicing fitness (ln) (37 °C): -0.406 ± 0.2

GAUCAGCAAUAUUACGGAAC
self-splicing fitness (ln) (30 °C): -0.655 ± 0.094 | self-splicing fitness (ln) (37 °C): -0.0305 ± 0.12

GAGGAGCAAUAUUACGUAAA
self-splicing fitness (ln) (30 °C): -3.86 ± 0.17 | self-splicing fitness (ln) (37 °C): -1.32 ± 0.13

CUCCAGCAAUAUUACGCCUU
self-splicing fitness (ln) (30 °C): -2.33 ± 0.18 | self-splicing fitness (ln) (37 °C): -2.29 ± 0.27

UUGAAGCAAUAUUACGGAAU
self-splicing fitness (ln) (30 °C): -3.36 ± 0.14 | self-splicing fitness (ln) (37 °C): -1.15 ± 0.12

UACGAGCAAUAUUACGACCU
self-splicing fitness (ln) (30 °C): -2.35 ± 0.27 | self-splicing fitness (ln) (37 °C): -1.82 ± 0.5

AAUUAGCAAUAUUACGUAUG
self-splicing fitness (ln) (30 °C): -1.04 ± 0.12 | self-splicing fitness (ln) (37 °C): -1.13 ± 0.16

CUUCAGCAAUAUUACGCGGG
self-splicing fitness (ln) (30 °C): -3.7 ± 0.19 | self-splicing fitness (ln) (37 °C): -2.61 ± 0.2

ACUGAGCAAUAUUACGCGGG
self-splicing fitness (ln) (30 °C): -2.64 ± 0.17 | self-splicing fitness (ln) (37 °C): -2.03 ± 0.18

GUGUAGCAAUAUUACGAACG
self-splicing fitness (ln) (30 °C): -1.76 ± 0.16 | self-splicing fitness (ln) (37 °C): -0.988 ± 0.23

ACGUAGCAAUAUUACGCAGU
self-splicing fitness (ln) (30 °C): -2.58 ± 0.2 | self-splicing fitness (ln) (37 °C): -2.54 ± 0.24

UACUAGCAAUAUUACGAGGG
self-splicing fitness (ln) (30 °C): -2.3 ± 0.13 | self-splicing fitness (ln) (37 °C): -2.52 ± 0.17

UUAGAGCAAUAUUACGCUUC
self-splicing fitness (ln) (30 °C): -2.81 ± 0.32

UUCCAGCAAUAUUACGACAG
self-splicing fitness (ln) (30 °C): -1.39 ± 0.17 | self-splicing fitness (ln) (37 °C): -0.449 ± 0.18

CCGUAGCAAUAUUACGCAAU
self-splicing fitness (ln) (30 °C): -3.31 ± 0.24 | self-splicing fitness (ln) (37 °C): -2.05 ± 0.22

CCCGAGCAAUAUUACGCCCU
self-splicing fitness (ln) (37 °C): -2.24 ± 0.33

UGACAGCAAUAUUACGAGUU
self-splicing fitness (ln) (30 °C): -3.89 ± 0.2 | self-splicing fitness (ln) (37 °C): -2.86 ± 0.19

UCACAGCAAUAUUACGACGG
self-splicing fitness (ln) (30 °C): -0.234 ± 0.066 | self-splicing fitness (ln) (37 °C): 0.353 ± 0.086

CGAAAGCAAUAUUACGACGU
self-splicing fitness (ln) (30 °C): -0.439 ± 0.067 | self-splicing fitness (ln) (37 °C): 0.0287 ± 0.078

UAUAAGCAAUAUUACGCACC
self-splicing fitness (ln) (30 °C): -1.82 ± 0.3 | self-splicing fitness (ln) (37 °C): -1.42 ± 0.3

GUGUAGCAAUAUUACGUACA
self-splicing fitness (ln) (30 °C): -1.49 ± 0.2 | self-splicing fitness (ln) (37 °C): -1.87 ± 0.28

AACAAGCAAUAUUACGAAAA
self-splicing fitness (ln) (30 °C): -1.7 ± 0.15 | self-splicing fitness (ln) (37 °C): -2.39 ± 0.19

CGUUAGCAAUAUUACGCUAG
self-splicing fitness (ln) (30 °C): -2.66 ± 0.17 | self-splicing fitness (ln) (37 °C): -1.51 ± 0.25

UUUUAGCAAUAUUACGCCUU
self-splicing fitness (ln) (30 °C): -1.74 ± 0.34 | self-splicing fitness (ln) (37 °C): -0.968 ± 0.22

CCGAAGCAAUAUUACGGCUU
self-splicing fitness (ln) (30 °C): -3.9 ± 0.29 | self-splicing fitness (ln) (37 °C): -3.29 ± 0.32

CUGGAGCAAUAUUACGUAAC
self-splicing fitness (ln) (30 °C): -3.25 ± 0.32 | self-splicing fitness (ln) (37 °C): -1.86 ± 0.3

GUAGAGCAAUAUUACGCAUA
self-splicing fitness (ln) (30 °C): -1.58 ± 0.14 | self-splicing fitness (ln) (37 °C): -1.59 ± 0.17

ACUUAGCAAUAUUACGUUCU
self-splicing fitness (ln) (30 °C): -1.28 ± 0.064 | self-splicing fitness (ln) (37 °C): -0.195 ± 0.087

— the supplement of paper PMC7877785
